# Measurements as given in the supplement of paper PMC9170038.
# System: MS2 coat protein
# Assay: apparent KD of MS2 coat protein; designed switch direction (-1 OFF switch, 1 ON switch): 1; higher = weaker reporter binding
# Outline: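 Designed RNA switches sharing common flanks were transcribed on Illumina chips by stalled E. coli RNA polymerase. They were titrated with SNAP-549-labelled MS2 coat protein, from 0.7 or 1.5 nM doubling to 3 µM, in Tris-HCl pH 7.5 buffer with KCl, MgCl2, BSA, DTT, tRNA and Tween-20. Titrations ran without input, with 200 uM small-molecule ligand, or with an oligonucleotide input. The apparent KD of each design is the median over its clusters, after curve-fitting of normalised cluster fluorescence.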
# [1] = input ligand: microRNA oligo, concentration not stated
# [2] = Eterna round: R95, input ligand: FMN 200 uM
# [3] = Eterna round: R95, input ligand: microRNA oligo, concentration not stated
# [4] = Eterna round: R95, input ligand: none
Sequence,apparent KD of MS2 coat protein (input ligand: FMN 200 uM) [nM],apparent KD of MS2 coat protein [1] [nM],apparent KD of MS2 coat protein (input ligand: none) [nM],apparent KD of MS2 coat protein [2] [nM],apparent KD of MS2 coat protein [3] [nM],apparent KD of MS2 coat protein [4] [nM]
"CCAAAUUGAAUCCACAUGAGGAUCACCCAUGUCCAACCGGUCUAGGAUAUCACAGCAAGCGCGUGUGAGAAGGAGAAAACAAGC [Eternabot solution 34] (Eterna round: R96, puzzle: Same State NG 3)",42.1,21,43.4,,,
AACAUUCUAUCUGAGGAUAUCAUGAAAUAAACAUGAGGAUCACCCAUGUGCAGGAAAACUGCAUAUGAGAAGGCAGAUAGAUUGA [salish99_ss2_r3_022] (puzzle: Same State 2),,,,44.9,1870,3320
UGUCCAGCCUGAGCUGGACAAAAGCAUGUACAUGAGGAUCACCCAUGUUCAUGUACAAGCUUUUUGCUCGUCUUACC [salish99_208a_r3_083] (puzzle: Sensor for hsa-mir-208a),,,,464,15.9,610
GGCAGGUGCAGGCUUGCUUGCACCUGGAAACAUGAGGAUCACCCAUGUUUGGGACAAGCUUUGCUCUUCGUCUUUUC [JL ViennaUCT Isusreraar mod 5] (puzzle: Sensor for hsa-mir-208a),,,,43.7,55.1,54.2
"GUAGCAUACCGAGGAUAUUCAUAUUACAUGAGGAUCACCCAUGUUAUUUAGGCCAAAAGGCCUUGGGAGAAGGCGGAAUGCUAC [Xeonanis - 20 Mod8] (Eterna round: R96, puzzle: Same State NG 2)",9.39,9.17,18.2,,,
"UGUUGUUAAUUAGGAUAUGGUCACAUGAGGAUCACCCAUGUAAUGUCGAUGCUAUGUGGAUCCGAUCAGAAGGAAUGGCUAACA [SameState NG2 #95] (Eterna round: R96, puzzle: Same State NG 2)",201,121,204,,,
"UGGCUCAGACGAGGAUAUAUGUGGUCACAUGAGGAUCACCCAUGUCUCGAGCUUCGGCUCGAGGCAUAGAAGGCGUCUGAGCCU [SSNG2/5-A3] (Eterna round: R96, puzzle: Same State NG 2)",200,7.4,148,,,
"CUAAAAGGAUGAGGAUAUGCAGAGGAUCACCCUGUAGAAGGCAACAGAUGAGGAUAUGCAGAGGAUCACCCUGUAGAAGGCAAC [pwkr ssNG DX.2] (Eterna round: R96, puzzle: Same State NG 1)",233,56.8,94.1,,,
AAAAUACAUGAGGAUCACCCAUGUCUAAAGAACGGAGGAUAUAGGCGUACAAAACACGCACUAGAAGGCUGGGUGC [Tesoonge] (puzzle: Same State 1),,,,151,116,155
GGAGCCGGCACUGAGGAUAUUCGUAUUAAAACAUGAGGAUCACCCAUGUAGGCCAGAAGGCCUUGGGAGAAGGCAGGUCGGCCCG [Bibimoar - 5] (puzzle: Same State 2),,,,12.5,33.9,46.4
"UGAAUAGUUACAGGAUAUCAUGCGAAAAUUGCGUGAGAAGGGUGGGUGUUGUGCGCAAAGUGCUACAUGAGGAUCACCCAUGUU [SameState NG1 #39] (Eterna round: R96, puzzle: Same State NG 1)",278,23.1,277,,,
"AGAUCAUGACGAGGAUAUGGUACAUGAGGAUCACCCAUGUAUGUACCACGACGCGUACGUCGAAUCCAGAAGGCGUCGUGGUCA [JL SSNG2 1.07] (Eterna round: R96, puzzle: Same State NG 2)",23.3,27.7,41.6,,,
"GGAGCCGGCCUAGGAUAUUUCAUAUAAAUACAUGAGGAUCACCCAUGUAGGCCAGAAGGCCUUGGGAAGAAGGAGGUCGGCUCC [Loop Effect - U25,U29] (Eterna round: R96, puzzle: Same State NG 2)",13,20.4,31.5,,,
ACAAGCUUUUCUGUAUUGAAAGGUGGGAUACAUGAGGAUCACCCAUGUUUUUUUGUUUAUUUUUUUCCUCGUCUUAU [JR_SHM208A_Sub088] (puzzle: Sensor for hsa-mir-208a),,,,34.3,37.8,34.3
